The values below come from the supplement of paper PMC9170038.

This data set concerns MS2 coat protein. Put plainly: apparent KD of MS2 coat protein; designed switch direction (-1 OFF switch, 1 ON switch): 1; higher = weaker reporter binding. To be noted: Eterna round: R98. The protocol: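 RNA-MaP: designed FMN/MS2 RNA switches (84 nt design region) are transcribed on-chip within common flanks and titrated with SNAP-549-labelled MS2 coat protein (about 1-3000 nM) in 100 mM Tris pH 7.5, 80 mM KCl, 4 mM MgCl2, without or with 200 uM FMN. Median apparent KD per design; activation ratio = KD,OFF / KD,ON.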

In the case of “UCACUCACGUUAGGAUAUGGAUCGGAAAACGAUCCAGAAGGAACCUGCAAACACGAGGAUCACCCGUGUUCCAAUAACGAGUGA [SameSame 5 - Jieux - Same State NG 1]”, the “apparent KD of MS2 coat protein” value runs as follows: (input ligand: FMN 200 uM) 24.7 nM; (input ligand: none) 20.3 nM.

In the case of “AAGCAAACAUGAGGAUCACCCAUGUAACUGCUUUUGGCGACACAGGAUAUACAGCGACAUUGGCGGUAGAAGGGUGAUUGAAGU [Araisleen]”, the “apparent KD of MS2 coat protein” value reads like this: (input ligand: FMN 200 uM) 51.1 nM; (input ligand: none) 22.2 nM.

Regarding “GUAGCAUACCGAGGAUAUUCAUACCAUAAAUGGACAUGAGGAUCACCCAUGUGGCGAAAGCCUUGGGAGAAGGCGGAAUGCUAC [EliMod 3 - Jieux - Same State NG 2]”, the “apparent KD of MS2 coat protein” value was 25.2 nM (input ligand: FMN 200 uM) and 673 nM (input ligand: none).

Turning to “GGUCUGAUAUGAGGAUAUGCUCAGGAUAACUGAGCAGAAGGCAUGUGAAAACAUGAGGAUCACCCAUGUAUGAUCUACAGACCA [Same State NG1 - WT Aptamer 4D]”, the “apparent KD of MS2 coat protein” value runs as follows: (input ligand: FMN 200 uM) 22.7 nM; (input ligand: none) 55.6 nM.

For the sequence “CGCUGUCGCGCAGGAUAUGCAUUGGAUUACAAUGCAGAAGGGCGAUUACAUGAGGAUCACCCAUGUGUAGACAGUGAAGAAGAG [SameState #31 NG1]”, the “apparent KD of MS2 coat protein” value (input ligand: FMN 200 uM) worked out at 28.4 nM and the “apparent KD of MS2 coat protein” value (input ligand: none) was 253 nM.

For “GGAGACCUCACAGGAUAUGCUGGACUUUGUCCAGCAGAAGGGUGUUUAACAUGAGGAUCACCCAUGUAGGUCUCCAAAUUUAAU [Denovo 60]”, the “apparent KD of MS2 coat protein” value came out at 46 nM (input ligand: FMN 200 uM) and 707 nM (input ligand: none).

Take “GUAGCAUACCGAGGAUAUUCAUACUGGAAACAGACAUGAGGAUCACCCAUGUGGCGAAAGCCUUGGGAGAAGGCGGAAUGCUAC [EliMod 9 - Jieux - Same State NG 2]”: the “apparent KD of MS2 coat protein” value by setting is: (input ligand: FMN 200 uM) 42.4 nM; (input ligand: none) 545 nM.

“AAAUAAAAUAUAGGAUAUGGAAACAUGAGGAUCACCCAUGUAAAAUAAGAUAAAUAAUAAUAUAACCAGAAGGAUAAAAUAUAA [LRO003_SS NG 2]”: the “apparent KD of MS2 coat protein” value runs as follows: (input ligand: FMN 200 uM) 53.3 nM; (input ligand: none) 30 nM.

In the case of “CCUGACACUUGAGGAUAUGCUCAGGAAUACUGAGCAGAAGGCAGGGAAACCUGAGGAUCACCCAGGUAAGUCAGGAAUAAUAAA [Same State NG1 - A3C, U17G Submission 2A]”, the “apparent KD of MS2 coat protein” value by setting is: (input ligand: FMN 200 uM) 21.9 nM; (input ligand: none) 62 nM.

Take “AAAACAUGAGGAUCACCCAUGUAAAGAUCGGUUAAUAAAAGUGAGGAUAUACAAAAUUUUAUAUAGUAGAAGGCACUGGGUACA [JR_SSNG3_Sub002]”: the “apparent KD of MS2 coat protein” value by setting is: (input ligand: FMN 200 uM) 29.7 nM; (input ligand: none) 28.3 nM.

As to “ACCGGCACUUACAUGAGGAUCACCCAUGUGUGCAAUCGGACACAGGAUAUCCAUGGUAAGUAUCGGGAGAAGGGUGGAAAGAAA [Reustion]”, the “apparent KD of MS2 coat protein” value (input ligand: FMN 200 uM) came to 258 nM and the “apparent KD of MS2 coat protein” value (input ligand: none) was 142 nM.

On to “CUAGCAUACCGAGGAUAUUCAUAUAAUAAAUAAACAUGAGGAUCACCCAUGUGGCGAAAGCCUAGGGAGAAGGCGGAAUGCUAU [salish99_SSNG2_r2_111]”, for which the “apparent KD of MS2 coat protein” value is 23.8 nM (input ligand: FMN 200 uM) and 210 nM (input ligand: none).

For “GCUUGCGACGCAGGAUAUGGGUGCCUGAACACGAGGAUCACCCGUGUAGAGGAAGCGAAAAGCUCUCAGAAGGGCGUCGCAGGC [United States 6 - Jieux - Same State NG 2]”, the “apparent KD of MS2 coat protein” value reads like this: (input ligand: FMN 200 uM) 19.8 nM; (input ligand: none) 50.5 nM.

Consider “CUAAUAUAGUGAGGAUAUGCACAGGAUCACCGUGUAGAAGGCAUCAGGUAGAAGGUGCAGAGGAUCACCCUGUAAGGAUAUACA [pwkr2 ssNG1 DX.5]”, for which the “apparent KD of MS2 coat protein” value (input ligand: FMN 200 uM) is 102 nM and the “apparent KD of MS2 coat protein” value (input ligand: none) was 385 nM.

For the sequence “CAUGUCCACACAGGAUAUGCUGGACUUUGUCCAGCAGAAGGGUGAACAUGAGGAUCACCCAUGUAAAGGACAUGUAUAUUUAAU [Denovo 16]”, the “apparent KD of MS2 coat protein” value is, setting by setting: (input ligand: FMN 200 uM) 93.3 nM; (input ligand: none) 715 nM.

As for “UUUACAUGAGGAUCACCCAUGUUUUGAAAGAUUGGUUUAGGUGAGGAUAUACAUGAUAAUGAAUUGUAGAAGGCACUGGGUACA [JR_SSNG3_Sub029]”, the “apparent KD of MS2 coat protein” value by setting is: (input ligand: FMN 200 uM) 29.6 nM; (input ligand: none) 39.3 nM.
